# Laboratory results: the DeepSol protein solubility set
# Assay: soluble on expression in E. coli; label from the status in PepcDB or PDB records
row,Sequence,soluble on expression in E. coli
1,MKFFVFALVLALMISMISADSHEKRHHGYRRKFHEKHHSHREFPFYGDYGSNYLYDNLEHHHHHH,not soluble
2,MKFGGVLLIVKDINKSKKFYEDVMEQKITLDLGEHVSFENGFGLQSNYKAIIGYDLPIYQQSNNFQLYFEVNDIKQWESKINRIGNIEFLHYIKEYPWGQRTFRFYDFDKNIIEISESMESVIKRLLKQGLALEEISKRTMYPVEFITQFQQLLEHHHHHH,soluble
3,MKFLQKEELRTLLQSLDLQSGINNDWFLLLIAKTGMRYAEALALTPSDFDWVNATVTIDKSWDYKTHRGFKKTKSTASDREIAIDWQIVGQFKPLIQDLPANDPIFIEKTERGTYKKQYNSTMNNYLEAKCKTLTITVISLHALRHTHASVLLAEGVSIHTISARLGHADVGVTQEIYAHVLDELQKKDDQKMMSVLMQIALEHHHHHH,soluble
4,MKFLYFGDPHIRGTNPRNRKDNYKEALIAKLREIFALAKYKGVTAIIQPGDTFDRPEVTTSVLLEFAKVLKESPVPIYTTAGNHDIYGYNLATYERTSLRVLELIVPQLTVINDPGQAQMFHQDGNHVQLTFTPYSDQIDKAGYGYSPEIIEDYESTKIHIAHGMLLDHDPPFDRYTKVQDVKTEADLVLCGHDHTGFGIYERSDGKVFVNDGSLTRLSASEAEMRRQISVLLIDVKAPRVFDLERIPLQSAKPGEEVLDRSRIEAEKKRAYAMEEFASLIQTETGEDVLVDINTIVESIAKTQSINSDVVEIALTKIAEAKEGLRT,not soluble
5,MKFPKDFMIGYSSSPFQFEAGIPGSEDPNSDWWVWVHDPENTAAGLVSGDFPENGPGYWNLNQNDHDLAEKLGVNTIRVGVEWSRIFPKPTFNVKVPVERDENGSIVHVDVDDKAVERLDELANKEAVNHYVEMYKDWVERGRKLILNLYHWPLPLWLHNPIMVRRMGPDRAPSGWLNEESVVEFAKYAAYIAWKMGELPVMWSTMNEPNVVYEQGYMFVKGGFPPGYLSLEAADKARRNMIQAHARAYDNIKRFSKKPVGLIYAFQWFELLEGPAEVFDKFKSSKLYYFTDIVSKGSSIINVEYRRDLANRLDWLGVNYYSRLVYKIVDDKPIILHGYGFLCTPGGISPAENPCSDFGWEVYPEGLYLLLKELYNRYGVDLIVTENGVSDSRDALRPAYLVSHVYSVWKAANEGIPVKGYLHWSLTDNYEWAQGFRQKFGLVMVDFKTKKRYLRPSALVFREIATHNGIPDELQHLTLIQ,soluble
6,MKFTDKTTQADTQRTITKDGFLVVPATISKVGVFDYLATELGLKEDGIKKVARTEKSLFSDETIKSFENATLTVGHLKDGVNAKNWKQLSVGVVRNVKRVGDELTAEAWIYDEQAIKTVQEHGVEQLSCGYDCDIKPSTVQDADFEMSPMIGNHVAIVAKGRCGGSVKLADEDKTIMGKTAKILDAFLGAFGIKLSDEQKKQIEDEEKSGSEEGKEPKGEQPTKPKEKKSEPENKKEDDVEKEELEKSLKAKDEEIQQLKDAQAKRDAEVKQAAVLADAKTAFKEVNFADNATVREIQESAVVAQGIFTKDEAAKLSDEEISGAYQTAKVVVAKLADERKSLGNILLGDAEPKAAPKIDFNKTYNS,not soluble
7,MKFTSATGSGQQGSSSGTTNSAGNPDSLKQDKVDKSGDSVTVAETTSGDNLTNYTNLPPNLTPTADPNALSFTNKNNAQRAQLFLRALLGSIPVLVNKSGQDDLEHHHHHH,not soluble
8,MKFTSATGSGSGQGSSSGTNTSAGNPDGLQADKVDQNGQVKTSVQEATSGDNLTNYTNLPPANLTPTADPNALSFTNKNNAQRAQLFLRGLLGSIPVLVNKSGQDDLEHHHHHH,not soluble
9,MKFWKKGLTAAALLAVAAVTLTACGGSSEKKATEKSEDGKTKLTVTTWNYDTTPEFEKLFRAFEAENPDITIEPVDIASDDYDTKVTTMLSSGDTTDILTMKNLLSYSNYALRNQLVDLTDHVKDLDIEPAKASYEMYEIDGKTYAQPYRTDFWVLYYNKKMFDEAGIAYPDNLTWDEYEALAKKLSKPEEQVYGAYQHTWRSTVQAIAAAQNNANLIEPKYNYMETYYDRALRMQKDQSQMDFGTAKSTKVTYQSQFENSKAAMMYMGSWYMGTLLTNIDDGKTNVEWGIAEIPQQEKGKATTFGSPTSFAINKNSKKQKAAQKFLDFASGKEGAKLLAEVGVVPSYKTDEIDKIYFARKGMPSDEVSQKAFNPDTINLEFPSDKNGAAIDKVLQEEHDLIMVGDEKPKDGIANMEKRVKAEID,not soluble
10,MKFYILLVVLVAFVAAKPHPGYGRPSYGGGYGGGGGDFGGGGSGGQWGSQSSSFQQSQSSGGFQNNAGGGFGGGMGPGGGGWGRR,not soluble
11,MKGAARLAPGRPSPAPAWETSDPYAAALRSGHGPLYLRRTDGWLLPLEVERWCARADAVDLDVLDRCEGAVLDVGCGPGRLVAELAARGRTVLGIDVSEAAVTRTVRLGGQSLRRSVFEPLPGEGRWDTVLLMDGNVGIGGDPRTLLGRVAALLAPGGLLIAETAGSDIDERAHVQVVDVTDGDAAGSPFPWARIGTPALLGHARDTGWRPAAQWTSGERRFVALRSSRSASSSAEPPNSTAVTSSQRARKPSADSPVTPWLEHHHHHH,not soluble
12,MKGIIFTEFMELVESKFGLEVLDQVLELSDDEGVYTSVGSYDHRDLVKLIVNLSKVSDIPPEQLQEVFGESVFLNLLRSIPSHASLQQCDNTFQFVRHVESFIHVEVKKLYPDANPPKFDFISETQSELVFDYHSARCMAHVCLGLLKGCAAHFGQVIHIMHQNQTEDGSQVRFWLEAQLEHHHHHH,not soluble
13,MKGKMAIVISTLNNPWFVVLAETAKQRAEQLGYEATIFDSQNDTAKESAHFDAIIAAGYDAIIFNPTDADGSIANVKRAKEAGIPVFCVDRGINARGLAVAQIYSDNYYGGVLMGEYFVKFLKEKYPDAKEIPYAELLGILSAQPTWDRSNGFHSVVDQYPEFKMVAQQSAEFDRDTAYKVTEQILQAHPEIKAIWCGNDAMALGAMKACEAAGRTDIYIFGFDGAEDVINAIKEGKQIVATIMQFPKLMARLAVEWADQYLRGERSFPEIVPVTVELVTRENIDKYTAYGRKEEGSHHHHHH,soluble
14,MKGMKYHDYIWDLGGTLLDNYETSTAAFVETLALYGITQDHDSVYQALKVSTPFAIETFAPNLENFLEKYKENEARELEHPILFEGVSDLLEDISNQGGRHFLVSHRNDQVLEILEKTSIAAYFTEVVTSSSGFKRKPNPESMLYLREKYQISSGLVIGDRPIDIEAGQAAGLDTHLFTSIVNLRQVLDI,soluble
15,MKGSTIGTETKECGKETDFCYNGTADISSFSKFQKAGCNTVICQFHANKCFEQNVSGQLLTFCCCNTDDLCNGGAVTDSGSLFDRGLSVLKGLVSAGKK,not soluble
16,MKHEEMNQRFNHLENEITELNKKLSALVSSEDENKRRDEHYAAIYDYCHKVAHETFMKFLQEKFLPAALSEKEAAYLRPEYVITVNSAGEEEHKSDFIASAPDKDQEPHRPFRVSCEEGEFVVYENGKPVRASHHHCLKIINLAIRCLKDENTRVMKRIGRCMGYLQVAAEIEALASGADMDAAVREALLRDFNTPPLRKSLMTGSSRG,not soluble
17,MKHLSPERLHVTQTAGITQLSPVNGRLYTLTHSDTTGALFLTVSRAFVTDQLTSQRDEVLGEWKQAGQQLVLFLYVFIGNRQMGRQENARRANVFKKELPLALEAIRYGDRAFFHTYPFCDWCPIFIHFTSEYPELNRTEYYGTPYLYR,not soluble
18,MKHTTKQMEILSDIRTLLHKKEEHLKRQNEKFLRETGVSSMSLSELHVIECIGKNGLMNVTAITTEMGMTKGAISKICTKLFQKQFVEKLQMLDNQKEIFFSLTESGNEIYKAHEKLHKQAEEKWLLLLDGYTKEEQDFIQRFIKDVSGHLEI,not soluble
19,MKIAIVGTGISGLTCGYYLHQQHDITLFEANDYIGGHTATVDVRVGIEDYAIDTGFIVYNDRTYPNFIKMMNEIGVEGIPTQMSFSVRNDGNGLEYNGHTLTTLFAQKRNWLNPKFYRFVLEILRFNKLAKASATEQISSSQSLGAFLDEHQFSDFFSDNYILPMGAAIWSSSLADMRAFPLMFFLRFFLNHGLLDVTNRPQWYVIKGGSRAYIPPLTQGFADKIRLNSPVEKVVRSEQGVAIYANGQCEWFDEVIFACHSDQALAMLSDASSCENDILSNMAYQANDVVLHTDTSVLPKRKSAWASWNYLLEGGEEEQQRLPSLTYNMNILQHIDSSHTFCVTLNRTEDIDENKILRQFTYHHPVFTTESIAAQQRKEEIQGAQHTWFCGAYWYNGFHEDGVRSALDVVKGIAAKHNEKNDTLYEQGAALEHHHHHH,soluble
20,MKIALIGASGYVGSALLKEALSRGHHVTALVSRPERIAAQANLAAAKVDVQDSAQLAEQLKGFDAVLSAFSGHAQAEQFDYFVKGIRSIIAAAKAAQAPRLLVVGGAGSLEVAPGVQLVDTPEFPEQWKASALGAREALNLLRAETELNWTLLSPSAMLQPGQRTGQFRLGKDQLLVDAEGNSHISVEDYAVAMIDELEKGLEHHHHHH,not soluble
21,MKIAVTKFLGTNCDLDVCHAVKLAGGEPELVFFTQENLDSYKGAVIPGGFSYGDYLRAGAISARTPIIKGLKKMVEEGKPVLGICNGAQIGLEAGFSKGTLTNNLNAKFICKWVYIRVENNKTPFTQYYKKGEVLKIPIAHAEGRFYADDETLDYMYKNNMIVFKYCDETGEVTEEANPNGSIDNIAGVCNENQNCVLLMPHPERASEKILGSDDGLKMFKGMIDYAKRI,soluble
22,MKIDISDILKHSGASLRLDFSESIKINDFIAEDFDFAKPVTFKGTLVNAGGIIKLDGELWADYRAKCSRCLKDIESKMHIDVKENFVEEGSNKTDEEYYTYHGKFLELEKVMIDNIILNLPAKQVCDEACKGYCPKCGADLNNDECKCVNEDIDPRLEVFKNFFTDN,soluble
23,MKIFKFTPENNLFYGYILEDMKTGFNILREIMVEGYRPSIARLYDAEDGTQHFTHFADGKCVLIFMAEGNPRIAKVTGEGIAEIVARYPQCQRVDSKLIETWFNNLNWGPDKVAAERVQILKTGNMGFTTEVSGCWSCIHEIYESVINRIRTEFPHADDITMLGGHSSHSYQNGTNMYFVYDYNVVDCKPEEEIDKYHNPLNKIICEETIRLGGSMVHHHGIGKHRVHWSKLEHGSAWALLEGLKKQFDPNGIMNTGTIYPIEK,soluble
24,MKIGFIGAGSMGGAMIKGLLKAEAVKKEHLYVKGGSSGTAEALQKEWGFQLVTDYALFQECKVIFIATGAKVVLPVLQELAPHFSNESLLISVATGHTIQEAQMALGNKEAKVVHAIPNTPVSVNQGVIGVALAPTIEGQTKDLAMELLATLGLVKEIREAQLETFGTVAGCSPAFVDIFMEALGDAAVLEGLPRDLSYEIVAQMIKGTATLALDTKKHPGALKDEVTSPGGSTIRGVVALEKNGFRYAVMDAVQQANHE,soluble
25,MKIIDEHTFEGKGYHPFLITDRWQVAYLNYAEAESLEQIEKLDIHHQTDEVFILLQGKAALIGASVTDQNITYDVVNMQPGIVYNIRREVWHKIAMQPGSQVLIIENNDTHLNDFEFFELTESQKSQLRECVTKIVSLTEN,not soluble
26,MKIITAINEDEWASITHIATTVHLKKDQLIIRKGDPGNKEVFLVNGIVRGFITDENGNEKSTSFFEEGEFMSTQALRTKKGISLYNYQALCRTKLLIFDSKQLKDLLSATKKLSEIGKAIKERELTRLMNRDDCLMQVKALDKYQKFITYYPALERQISQRYIASYLGITPVSLSRLKKSMIVRTDNN,not soluble
